What was measured:
Assay in all cases: holdup assay
Design in all cases: key: below the threshold = too weak to quantify, mostly under pKd 3.1 to 4
APBA3_1, O96018 = target: T1, APBA3_1, O96018
T1 sequence (O96018 389-490, limits assumed, looked up): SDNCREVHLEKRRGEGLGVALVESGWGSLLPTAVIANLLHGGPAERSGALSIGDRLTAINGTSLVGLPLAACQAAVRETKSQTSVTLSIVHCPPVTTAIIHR

DFNB31_1, Q9P202 = target: T2, DFNB31_1, Q9P202
T2 sequence (Q9P202 135-233, limits assumed, looked up): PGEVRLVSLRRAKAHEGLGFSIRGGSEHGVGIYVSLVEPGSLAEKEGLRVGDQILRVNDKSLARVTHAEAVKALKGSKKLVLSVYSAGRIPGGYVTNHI

DFNB31_3, Q9P202 = target: T3, DFNB31_3, Q9P202
T3 sequence (Q9P202 811-907, limits assumed, looked up): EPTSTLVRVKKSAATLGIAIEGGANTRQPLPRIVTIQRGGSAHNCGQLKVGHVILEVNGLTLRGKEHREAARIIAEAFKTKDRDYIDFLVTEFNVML

DLG3_2, Q92796 = target: T4, DLG3_2, Q92796
T4 sequence (Q92796 221-321, limits assumed, looked up): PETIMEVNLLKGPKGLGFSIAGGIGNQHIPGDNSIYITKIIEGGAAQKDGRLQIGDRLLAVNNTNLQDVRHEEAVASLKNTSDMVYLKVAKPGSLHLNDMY

DLG5_1, Q8TDM6 = target: DLG5_1, Q8TDM6
FRMPD3, Q5JV73 = target: FRMPD3, Q5JV73
GORASP2, Q9H8Y8 = target: GORASP2, Q9H8Y8
GRASP, Q7Z6J2 = target: GRASP, Q7Z6J2
GRID2IP_2, A4D2P6 = target: GRID2IP_2, A4D2P6
GRIP1_4, Q9Y3R0 = target: T5, GRIP1_4, Q9Y3R0
T5 sequence (Q9Y3R0 467-571, limits assumed, looked up): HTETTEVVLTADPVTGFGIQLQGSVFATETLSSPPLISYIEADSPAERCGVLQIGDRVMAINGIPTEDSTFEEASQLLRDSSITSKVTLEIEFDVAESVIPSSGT

GRIP2_4, Q9C0E4 = target: GRIP2_4, Q9C0E4
GRIP2_6, Q9C0E4 = target: GRIP2_6, Q9C0E4
HTRA3, P83110 = target: T6, HTRA3, P83110
T6 sequence (P83110 354-453, limits assumed, looked up): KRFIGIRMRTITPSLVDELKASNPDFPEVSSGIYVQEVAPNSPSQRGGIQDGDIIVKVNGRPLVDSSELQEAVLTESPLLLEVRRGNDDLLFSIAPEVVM

IL16_3, Q14005 = target: IL16_3, Q14005
IL16_4, Q14005 = target: IL16_4, Q14005
Inadl_9, Q8NI35 = target: Inadl_9, Q8NI35
LNX1_2, Q8TBB1 = target: LNX1_2, Q8TBB1
MAGI2_2, Q86UL8 = target: MAGI2_2, Q86UL8
MPDZ_12, O75970 = target: T7, MPDZ_12, O75970
T7 sequence (O75970 1857-1958, limits assumed, looked up): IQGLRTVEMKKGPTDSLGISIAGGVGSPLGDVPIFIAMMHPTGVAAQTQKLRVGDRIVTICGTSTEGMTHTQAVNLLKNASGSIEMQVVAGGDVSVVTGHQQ

MPP2, Q14168 = target: T8, MPP2, Q14168
T8 sequence (Q14168 180-250, limits assumed, looked up): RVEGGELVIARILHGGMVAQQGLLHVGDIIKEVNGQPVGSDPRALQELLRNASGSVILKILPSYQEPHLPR

NOS1, P29475 = target: NOS1, P29475
PDZRN3_1, Q9UPQ7 = target: T9, PDZRN3_1, Q9UPQ7
T9 sequence (Q9UPQ7 244-349, limits assumed, looked up): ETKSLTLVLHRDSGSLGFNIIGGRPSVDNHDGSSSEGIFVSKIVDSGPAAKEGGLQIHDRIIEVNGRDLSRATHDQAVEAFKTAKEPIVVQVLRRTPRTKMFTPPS

PICK1, Q9NRD5 = target: PICK1, Q9NRD5
RADIL, Q96JH8 = target: T10, RADIL, Q96JH8
T10 sequence (Q96JH8 971-1071, limits assumed, looked up): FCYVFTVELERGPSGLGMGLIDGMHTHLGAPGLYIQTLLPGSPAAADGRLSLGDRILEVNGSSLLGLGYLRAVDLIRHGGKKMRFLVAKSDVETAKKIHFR

TIAM2, Q8IVF5 = target: T11, TIAM2, Q8IVF5
T11 sequence (Q8IVF5 885-986, limits assumed, looked up): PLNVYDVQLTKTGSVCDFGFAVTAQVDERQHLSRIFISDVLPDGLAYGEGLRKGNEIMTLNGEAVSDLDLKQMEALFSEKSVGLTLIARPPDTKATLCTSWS

TJP1_3, Q07157 = target: TJP1_3, Q07157
[1] = plain residues with an end cap or a label only (N-terminal biotin on a linker: ttds)
[2] = plain residues with an end cap or a label only (N-terminal biotin on a linker: ahx)
[3] = plain residues with an end cap or a label only (N-terminal biotin on a linker: ado-ado)

Sequence of Inadl_9, Q8NI35 (Q8NI35 1530-1615): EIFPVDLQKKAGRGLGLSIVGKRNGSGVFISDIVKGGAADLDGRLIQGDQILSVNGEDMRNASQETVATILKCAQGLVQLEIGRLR
Sequence of MAGI2_2, Q86UL8 (Q86UL8 410-522): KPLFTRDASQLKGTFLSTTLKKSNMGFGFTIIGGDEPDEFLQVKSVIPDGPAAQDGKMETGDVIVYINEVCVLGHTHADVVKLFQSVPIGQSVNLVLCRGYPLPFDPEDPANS
Sequence of NOS1, P29475 (P29475 9-101): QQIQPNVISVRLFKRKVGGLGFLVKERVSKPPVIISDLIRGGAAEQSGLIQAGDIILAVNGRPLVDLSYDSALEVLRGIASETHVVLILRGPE
Sequence of GRIP2_6, Q9C0E4 (Q9C0E4 648-740): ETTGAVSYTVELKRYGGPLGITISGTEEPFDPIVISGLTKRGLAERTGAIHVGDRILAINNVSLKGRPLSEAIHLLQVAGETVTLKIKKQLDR
Sequence of GRIP2_4, Q9C0E4 (Q9C0E4 446-548): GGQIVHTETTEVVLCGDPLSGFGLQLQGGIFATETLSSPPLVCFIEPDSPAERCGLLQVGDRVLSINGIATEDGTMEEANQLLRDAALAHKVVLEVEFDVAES
Sequence of LNX1_2, Q8TBB1 (Q8TBB1 371-470): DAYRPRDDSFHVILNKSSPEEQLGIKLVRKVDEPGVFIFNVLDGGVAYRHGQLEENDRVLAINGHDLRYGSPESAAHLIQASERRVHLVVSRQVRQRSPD
Sequence of GRASP, Q7Z6J2 (Q7Z6J2 96-193): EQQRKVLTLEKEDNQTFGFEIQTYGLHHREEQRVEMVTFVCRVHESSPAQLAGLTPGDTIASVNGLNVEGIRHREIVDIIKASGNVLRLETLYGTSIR
Sequence of DLG5_1, Q8TDM6 (Q8TDM6 617-713): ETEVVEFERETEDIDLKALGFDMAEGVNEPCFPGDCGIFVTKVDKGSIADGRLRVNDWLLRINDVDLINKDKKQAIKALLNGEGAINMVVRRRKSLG
Sequence of TJP1_3, Q07157 (Q07157 416-512): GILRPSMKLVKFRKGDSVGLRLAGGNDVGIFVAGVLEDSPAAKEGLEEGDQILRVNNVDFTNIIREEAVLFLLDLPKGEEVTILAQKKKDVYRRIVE
Sequence of GRID2IP_2, A4D2P6 (A4D2P6 272-370): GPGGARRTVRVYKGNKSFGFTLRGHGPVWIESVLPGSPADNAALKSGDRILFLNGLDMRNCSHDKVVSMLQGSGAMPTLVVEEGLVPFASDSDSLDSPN
Sequence of IL16_4, Q14005 (Q14005 1229-1329): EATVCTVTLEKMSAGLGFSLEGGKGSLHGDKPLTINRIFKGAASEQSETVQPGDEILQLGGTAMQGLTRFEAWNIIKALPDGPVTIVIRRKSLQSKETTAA
Sequence of IL16_3, Q14005 (Q14005 1107-1207): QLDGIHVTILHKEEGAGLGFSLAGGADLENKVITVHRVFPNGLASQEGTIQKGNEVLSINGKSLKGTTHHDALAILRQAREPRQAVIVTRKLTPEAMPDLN
Sequence of PICK1, Q9NRD5 (Q9NRD5 17-115): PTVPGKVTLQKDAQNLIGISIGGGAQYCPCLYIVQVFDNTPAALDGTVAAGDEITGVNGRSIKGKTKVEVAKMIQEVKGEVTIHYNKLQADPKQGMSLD
Sequence of FRMPD3, Q5JV73 (Q5JV73 12-100): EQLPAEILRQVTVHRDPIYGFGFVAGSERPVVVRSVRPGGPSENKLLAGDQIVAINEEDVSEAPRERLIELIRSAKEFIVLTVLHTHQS

Binder: RTRQRNETQV [HPV51-E6, P26554]
- pKd (APBA3_1, O96018; [1]): below the threshold
- pKd (DFNB31_1, Q9P202; [1]): 3.47
- pKd (DFNB31_3, Q9P202; [1]): below the threshold
- pKd (DLG3_2, Q92796; [1]): 5.1
- pKd (DLG5_1, Q8TDM6; [1]): below the threshold
- pKd (FRMPD3, Q5JV73; [1]): below the threshold
- pKd (GORASP2, Q9H8Y8; [1]): 4.65
- pKd (GRASP, Q7Z6J2; [1]): below the threshold
- pKd (GRID2IP_2, A4D2P6; [1]): below the threshold
- pKd (GRIP1_4, Q9Y3R0; [1]): below the threshold
- pKd (GRIP2_4, Q9C0E4; [1]): below the threshold
- pKd (GRIP2_6, Q9C0E4; [1]): below the threshold
- pKd (HTRA3, P83110; [1]): below the threshold
- pKd (IL16_3, Q14005; [1]): below the threshold
- pKd (IL16_4, Q14005; [1]): below the threshold
- pKd (Inadl_9, Q8NI35; [1]): below the threshold
- pKd (LNX1_2, Q8TBB1; [1]): below the threshold
- pKd (MAGI2_2, Q86UL8; [1]): 6.66
- pKd (MPDZ_12, O75970; [1]): below the threshold
- pKd (MPP2, Q14168; [1]): below the threshold
- pKd (NOS1, P29475; [1]): 3.91
- pKd (PDZRN3_1, Q9UPQ7; [1]): 4.06
- pKd (PICK1, Q9NRD5; [1]): below the threshold
- pKd (RADIL, Q96JH8; [1]): 3.82
- pKd (TIAM2, Q8IVF5; [1]): below the threshold
- pKd (TJP1_3, Q07157; [1]): below the threshold

Binder: QGRWDHETIV [TMEM215, Q68D42]
- pKd (APBA3_1, O96018; [2]): below the threshold
- pKd (DFNB31_1, Q9P202; [2]): 3.86
- pKd (DFNB31_3, Q9P202; [2]): below the threshold
- pKd (DLG3_2, Q92796; [2]): 4.8
- pKd (DLG5_1, Q8TDM6; [2]): below the threshold
- pKd (FRMPD3, Q5JV73; [2]): below the threshold
- pKd (GORASP2, Q9H8Y8; [2]): 4.3
- pKd (GRASP, Q7Z6J2; [2]): below the threshold
- pKd (GRID2IP_2, A4D2P6; [2]): below the threshold
- pKd (GRIP1_4, Q9Y3R0; [2]): below the threshold
- pKd (GRIP2_4, Q9C0E4; [2]): below the threshold
- pKd (GRIP2_6, Q9C0E4; [2]): below the threshold
- pKd (HTRA3, P83110; [2]): below the threshold
- pKd (IL16_3, Q14005; [2]): below the threshold
- pKd (IL16_4, Q14005; [2]): below the threshold
- pKd (Inadl_9, Q8NI35; [2]): 3.92
- pKd (LNX1_2, Q8TBB1; [2]): 4.23
- pKd (MAGI2_2, Q86UL8; [2]): 4.08
- pKd (MPDZ_12, O75970; [2]): below the threshold
- pKd (MPP2, Q14168; [2]): below the threshold
- pKd (NOS1, P29475; [2]): 4.04
- pKd (PDZRN3_1, Q9UPQ7; [2]): 3.73
- pKd (PICK1, Q9NRD5; [2]): 4.06
- pKd (RADIL, Q96JH8; [2]): 4.83
- pKd (TIAM2, Q8IVF5; [2]): below the threshold
- pKd (TJP1_3, Q07157; [2]): below the threshold

Binder: EEPEERHTEL [CES2, O00748]
- pKd (APBA3_1, O96018; [3]): below the threshold
- pKd (DFNB31_1, Q9P202; [3]): 3.6
- pKd (DFNB31_3, Q9P202; [3]): 3.86
- pKd (DLG3_2, Q92796; [3]): 4.38
- pKd (DLG5_1, Q8TDM6; [3]): below the threshold
- pKd (FRMPD3, Q5JV73; [3]): below the threshold
- pKd (GORASP2, Q9H8Y8; [3]): below the threshold
- pKd (GRASP, Q7Z6J2; [3]): 4.62
- pKd (GRID2IP_2, A4D2P6; [3]): 4.46
- pKd (GRIP1_4, Q9Y3R0; [3]): below the threshold
- pKd (GRIP2_4, Q9C0E4; [3]): below the threshold
- pKd (GRIP2_6, Q9C0E4; [3]): below the threshold
- pKd (HTRA3, P83110; [3]): below the threshold
- pKd (IL16_3, Q14005; [3]): below the threshold
- pKd (IL16_4, Q14005; [3]): below the threshold
- pKd (Inadl_9, Q8NI35; [3]): below the threshold
- pKd (LNX1_2, Q8TBB1; [3]): below the threshold
- pKd (MAGI2_2, Q86UL8; [3]): below the threshold
- pKd (MPDZ_12, O75970; [3]): below the threshold
- pKd (MPP2, Q14168; [3]): below the threshold
- pKd (NOS1, P29475; [3]): 3.56
- pKd (PDZRN3_1, Q9UPQ7; [3]): 4.15
- pKd (PICK1, Q9NRD5; [3]): below the threshold
- pKd (RADIL, Q96JH8; [3]): below the threshold
- pKd (TIAM2, Q8IVF5; [3]): 4.07
- pKd (TJP1_3, Q07157; [3]): below the threshold

Binder: GGPKEEESPV [SLC16A1, P53985]
- pKd (APBA3_1, O96018; [1]): below the threshold
- pKd (DFNB31_1, Q9P202; [1]): 3.5
- pKd (DFNB31_3, Q9P202; [1]): below the threshold
- pKd (DLG3_2, Q92796; [1]): below the threshold
- pKd (DLG5_1, Q8TDM6; [1]): below the threshold
- pKd (FRMPD3, Q5JV73; [1]): below the threshold
- pKd (GORASP2, Q9H8Y8; [1]): below the threshold
- pKd (GRASP, Q7Z6J2; [1]): below the threshold
- pKd (GRID2IP_2, A4D2P6; [1]): below the threshold
- pKd (GRIP1_4, Q9Y3R0; [1]): below the threshold
- pKd (GRIP2_4, Q9C0E4; [1]): below the threshold
- pKd (GRIP2_6, Q9C0E4; [1]): below the threshold
- pKd (HTRA3, P83110; [1]): below the threshold
- pKd (IL16_3, Q14005; [1]): below the threshold
- pKd (IL16_4, Q14005; [1]): below the threshold
- pKd (Inadl_9, Q8NI35; [1]): below the threshold
- pKd (LNX1_2, Q8TBB1; [1]): below the threshold
- pKd (MAGI2_2, Q86UL8; [1]): below the threshold
- pKd (MPDZ_12, O75970; [1]): below the threshold
- pKd (MPP2, Q14168; [1]): below the threshold
- pKd (NOS1, P29475; [1]): 3.64
- pKd (PDZRN3_1, Q9UPQ7; [1]): below the threshold
- pKd (PICK1, Q9NRD5; [1]): below the threshold
- pKd (RADIL, Q96JH8; [1]): below the threshold
- pKd (TIAM2, Q8IVF5; [1]): below the threshold
- pKd (TJP1_3, Q07157; [1]): below the threshold

Reference: article PMC9482650, “Quantitative fragmentomics allow affinity mapping of interactomes” (Nature Communications, 2022)
